Assay results published in patent US20260117259A1.
Like-named read-outs stand apart in the source and are kept apart here.

Experiments:
BG505ConM-v8.1ds (GnTI-) = assay: flow cytometry, VRC26.25 HCDR3-edited primary murine B cells, labeled SOSIP against surface IgM
BG505ConM-v7ds = assay: as above
BG505ConM-v8.1 (GnTI-) = assay: as above
[1] = molecular target: ConM SOSIP protein (v8.1ds) modified with the BG505 V1V2 region (HIV-1); assay: as above
BG505ConM-v8.1 = assay: as above
CRF250ConM-v7ds (GnTI-) = assay: as above
ConM-v7 = assay: as above
BG505ConM-v7ds (GnTI-) = assay: as above
ConM-v7ds = assay: as above
ConM-8.1ds (GnTI-) = assay: as above
[2] = molecular target: ConM SOSIP protein (v8.1ds) modified with the CRF250 V1V2 region (HIV-1); assay: as above
ConM-v8.1(GnTI-) = assay: as above
ConM-v8.1ds [3] = assay: as above
CRF250ConM-v8.1 (GnTI-) = assay: as above
CRF250ConM-v7ds = assay: as above
ConM-v7ds (GnTI-) = assay: as above
CRFConM-v8.1ds (GnTI-) = assay: as above
ConM-v7 (GnTI-) = assay: as above
[4] = molecular target: ConM SOSIP protein (v8.1ds) modified with the BG505 V1V2 region (HIV-1); assay: as above; remark: listed apart in the source
[5] = molecular target: ConM SOSIP protein (v8.1ds) modified with the CRF250 V1V2 region (HIV-1); assay: as above; remark: listed apart in the source
[6] = molecular target: 16055-ConM-v8.1ds SOSIP trimer (HIV-1); assay: as above
ConM-v8.1ds [7] = assay: as above; remark: listed apart in the source
[8] = molecular target: 16055-ConM-v8.1ds SOSIP trimer (HIV-1); assay: flow cytometry, primary murine B cells edited in the HCDR3, labeled 16055-ConM-v8.1ds SOSIP against surface IgM
SOSIP [9] = assay: flow cytometry of murine B cells edited with the VRC26.25 HCDR3, APC-labeled SOSIP trimer against anti-IgM; activation High dose LPS
SOSIP [10] = assay: flow cytometry of murine B cells edited with the VRC26.25 HCDR3, APC-labeled SOSIP trimer against anti-IgM; activation Low dose LPS + IL4
SOSIP [11] = assay: flow cytometry of murine B cells edited with the VRC26.25 HCDR3, APC-labeled SOSIP trimer against anti-IgM; activation Anti-CD180

Question: “B-cell receptors of primary murine B cells edited to express the VRC26.25 HCDR3 (antibody)” was tested. Which % of cells in the SOSIP gate (BG505ConM-v8.1ds (GnTI-)) did it give?
Answer: 6.39%

Question: What about the % of cells in the SOSIP gate (BG505ConM-v7ds) of the same substance?
Answer: 5.08%

Question: What about the % of cells in the SOSIP gate (BG505ConM-v8.1 (GnTI-)) of the same substance?
Answer: 7.41%

Question: What about the % of cells in the SOSIP gate [1] of the same substance?
Answer: 5.87%

Question: And the % of cells in the SOSIP gate (BG505ConM-v8.1)?
Answer: 5.19%

Question: What about the % of cells in the SOSIP gate (CRF250ConM-v7ds (GnTI-)) of the same substance?
Answer: 6.33%

Question: What about the % of cells in the SOSIP gate (ConM-v7) of the same substance?
Answer: 5.57%

Question: What about the % of cells in the SOSIP gate (BG505ConM-v7ds (GnTI-)) of the same substance?
Answer: 4.61%

Question: And the % of cells in the SOSIP gate (ConM-v7ds)?
Answer: 5.51%

Question: And the % of cells in the SOSIP gate (ConM-8.1ds (GnTI-))?
Answer: 7.68%

Question: And the % of cells in the SOSIP gate [2]?
Answer: 6.6%

Question: And the % of cells in the SOSIP gate (ConM-v8.1(GnTI-))?
Answer: 6.89%

Question: And the % of cells in the SOSIP gate (ConM-v8.1ds [3])?
Answer: 6.58%

Question: And the % of cells in the SOSIP gate (CRF250ConM-v8.1 (GnTI-))?
Answer: 5.16%

Question: What about the % of cells in the SOSIP gate (CRF250ConM-v7ds) of the same substance?
Answer: 5.46%

Question: And the % of cells in the SOSIP gate (ConM-v7ds (GnTI-))?
Answer: 4.48%

Question: What about the % of cells in the SOSIP gate (CRFConM-v8.1ds (GnTI-)) of the same substance?
Answer: 7.8%

Question: What about the % of cells in the SOSIP gate (ConM-v7 (GnTI-)) of the same substance?
Answer: 7.31%

Question: What about the % of cells in the SOSIP gate [4] of the same substance?
Answer: 3.59%

Question: What about the % of cells in the SOSIP gate [5] of the same substance?
Answer: 3.22%

Question: And the % of cells in the SOSIP gate [6]?
Answer: 3.83%

Question: What about the % of cells in the SOSIP gate (ConM-v8.1ds [7]) of the same substance?
Answer: 3.62%

Question: And the % of cells in the SOSIP gate [8]?
Answer: 4.54%

Question: And the % of cells above the SOSIP gate line (SOSIP [9])?
Answer: 3.41%

Question: What about the % of cells above the SOSIP gate line (SOSIP [10]) of the same substance?
Answer: 4.62%

Question: What about the % of cells above the SOSIP gate line (SOSIP [11]) of the same substance?
Answer: 4.47%
